# Measured values from PMC7986998.
# Biological target: human ACE2-Fc (human) (UniProt Q9BYF1)
# Test: ELISA
# Sequence of human ACE2-Fc (human) (Q9BYF1 18-740): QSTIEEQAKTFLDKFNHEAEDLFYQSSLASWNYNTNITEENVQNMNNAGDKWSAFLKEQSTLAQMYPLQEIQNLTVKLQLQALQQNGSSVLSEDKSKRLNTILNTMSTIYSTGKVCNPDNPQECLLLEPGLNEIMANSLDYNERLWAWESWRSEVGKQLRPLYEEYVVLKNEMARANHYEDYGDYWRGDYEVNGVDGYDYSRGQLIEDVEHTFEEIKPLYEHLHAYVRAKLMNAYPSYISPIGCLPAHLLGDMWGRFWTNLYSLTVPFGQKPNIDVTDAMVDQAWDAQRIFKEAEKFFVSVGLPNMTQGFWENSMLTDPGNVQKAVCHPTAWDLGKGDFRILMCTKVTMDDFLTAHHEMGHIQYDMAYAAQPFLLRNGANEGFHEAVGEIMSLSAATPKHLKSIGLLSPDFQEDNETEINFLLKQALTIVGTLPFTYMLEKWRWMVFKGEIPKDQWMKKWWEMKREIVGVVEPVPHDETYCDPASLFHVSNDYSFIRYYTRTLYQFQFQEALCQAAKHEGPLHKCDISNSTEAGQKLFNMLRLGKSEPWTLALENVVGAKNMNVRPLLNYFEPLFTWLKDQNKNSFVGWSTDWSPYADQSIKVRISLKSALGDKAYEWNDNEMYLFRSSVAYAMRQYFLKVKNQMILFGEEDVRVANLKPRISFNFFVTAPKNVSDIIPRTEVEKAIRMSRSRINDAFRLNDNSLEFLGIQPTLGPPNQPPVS
substance,measurement,value
SARS-CoV S 2P ectodomain trimer (from UniProt P59594 14-1195) (domain or fragment),EC50,4.11 nM
